Results from patent publication US20130252983A1 (CORNELL UNIVERSITY, published 2013).

Molecular target: mTOR (mammalian target of rapamycin) (UniProt Q9JLN9 1-2549)
Test: co-immunoprecipitation of GAC proteins from Dbl-transformed cell lysates, Western blot with mTOR antibody
Description: To test this, Dbl-transformed cells were transiently transfected with wild-type GAC, GACΔC and GAC (S103A), and then these proteins were isolated from cell lysates by immunoprecipitation.

B1: GAC (S103A), phospho-defective mutant of mouse glutaminase C (enzyme)
chain: HPWWGGGGRAKGPGAGGLSSSPSEILQELGKGGTPPQQQQQQQQQPGAAPPAAPGPKDSPGETDAFGNSEGKEMVAAGDNKIKQGLLPSLEDLLFYTIAEGQEKIPVHKFITALKSTGLRTSDPRLKECMDMLRLTLQTTSDGVMLDKDLFKKCVQSNIVLLTQAFRRKFVIPDFMSFTSHIDELYESAKKQSGGKVADYIPQLAKFSPDLWGVSVCTVDGQRHSIGDTKVPFCLQSCVKPLKYAIAVNDLGTEYVHRYVGKEPSGLRFNKLFLNEDDKPHNPMVNAGAIVVTSLIKQGVNNAEKFDYVMQFLNKMAGNEYVGFSNATFQSERESGDRNFAIGYYLKEKKCFPEGTDMVGILDFYFQLCSIEVTCESASVMAATLANGGFCPITGERVLSPEAVRNTLSLMHSCGMYDFSGQFAFHVGLPAKSGVAGGILLVVPNVMGMMCWSPPLDKMGNSVKGIHFCHDLVSLCNFHNYDNLRHFAKKLDPRREGGDQRHSFGPLDYESLQQELALKDTVWKKVSPESSDDTSTTVVYRMESLGERS
notes: Transiently expressed in Dbl-transformed NIH 3T3 cells and isolated by immunoprecipitation; not shown: V5 tag
binding result: no binding
